Results published in PMC11094025.

Key:
[1] = molecular target: VAPB (Vesicle-Associated-membrane Protein-associated protein B), endogenous (UniProt O95292); test: peptide pull-down from total HeLa cell lysate, Western blot quantification; conditions: parent: est. 1.0; read off a plot
[2] = molecular target: GST-VAPB-MSP (wild-type MSP-domain of VAPB fused to a GST-tag) (UniProt O95292); test: peptide pull-down of purified protein, Coomassie gel quantification; conditions: parent: est. 1.0; read off a plot

ratio to parent [1]: 0.5
ratio to parent [2]: 1.1
Substance: ELYS FFAT-2 peptide, non-phosphorylated S1314A; S1326A
